In the supplement of paper PMC10567573:

B1: ZBTB22 (parent)
chain: FSSSSQEAFAASAVGSGERRGGGP
B2: PCDHGA10 (parent)
chain: FHELQMQVTASDSGDPPLSSNVSL

Variants of: B1
Assay: protein stability index of a GFP-peptide fusion (GPS, HEK-293T) (PSI 1-6); higher = more stable
Settings: c terminus: a fixed tail appended
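Further: lentivirally expressed fusions sorted by FACS into six bins by GFP to DsRed ratio, PSI derived from sequencing read proportions per bin multiplied by bin number.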

Protein stability index, by site and new letter:
P24: W 2.22, A 3.5, M 2.43, K 3.33, R 3.03, G 2.6, T 3.07, E 3.8, C 3.21, D 3.89, S 3.41, H 3.75, Q 2.79, N 3.29, L 3.32, Y 2.86, I 2.6, F 2.73, V 2.92
V14: N 3.33, R 3.65, S 3.25, E 3.85, W 1.32, K 3.33, Y 2.76, A 3.76, Q 3.52, P 3.9, D 4.5, F 2.99, T 3.27, G 3.56, H 3.86, L 3.77, M 3.25, I 2.55, C 3.36
R19: N 3.49, H 3.34, V 3.46, K 3.41, F 3.15, S 3.86, C 3.07, G 3.82, Y 3.32, Q 3.47, L 2.87, P 3.36, A 3.43, M 3.35, D 2.53, I 3.23, T 3.78, W 2.04, E 4.24
A10: T 3.26, N 3.97, V 2.58, C 2.44, P 3.89, H 3.65, W 2.88, S 3.22, E 4.74, M 3.16, G 3.75, K 3.2, R 3.33, Y 2.27, D 5.25, L 3.26, F 2.41, Q 4.09, I 2.44
G21: L 3.05, M 3.4, H 3.03, Y 3.22, A 3.64, E 3.68, P 3.69, V 2.84, R 3.35, W 2.31, T 2.94, C 3.48, F 3.22, S 3.85, K 2.69, D 4.06, N 3.45, Q 3.73, I 3.48
S12: E 3.58, H 2.94, C 2.54, I 2.26, Q 3.71, M 2.63, K 3.68, N 3.26, L 2.36, G 3.61, Y 1.85, R 2.61, D 3.48, A 3.56, P 3.36, V 2.87, F 1.47, T 3.02
E18: I 2.36, G 3.84, Q 3.24, T 2.87, M 2.96, W 2.92, N 2.55, H 3.65, K 3.31, F 2.86, Y 2.69, C 2.96, V 2.49, A 3.48, L 2.85, S 2.28, D 2.98, P 2.97
G23: R 3.48, H 3.39, I 2.74, K 4.06, T 3.27, L 2.94, W 1.43, P 3.54, F 3.75, N 3.4, A 3.57, V 3.03, D 4.21, Q 3.26, M 2.91, Y 2.87, S 3.25, C 3.46, E 3.53
S16: M 3.37, N 3.38, Q 2.96, Y 2.96, R 3.35, I 3.06, G 3.18, V 3.52, W 2.17, A 3.29, L 2.75, D 3.63, P 3.4, T 3.61, K 3.34, F 2.4, E 4.25, H 3.27
G22: I 3.3, H 3.83, W 2.19, V 3.33, M 2.44, P 3.7, Y 2.57, F 2.96, K 2.15, R 3.25, A 3.6, S 3.33, C 3.29, Q 3.83, D 3.11, N 3.55, L 3.65, E 3.66, T 3.72
G15: A 3.09, K 3.41, Y 2.58, F 2.02, H 3.24, E 3.85, V 2.53, R 2.78, N 3.43, P 3.58, M 3.25, I 3.3, S 3.61, C 2.94, D 4.16, L 3.89, Q 3.26, W 2.72, T 3.12
F9: G 4.56, Q 5.09, H 4.66, R 4.35, A 5.51, N 4.71, P 4.98, E 5.92, D 5.44, I 4.83, M 4.96, K 5.2, C 4.57, W 1.67, L 4.92, Y 3.56, T 5.26, S 5.01, V 5.24
E7: P 3.25, S 2.57, Q 3.67, Y 1.54, T 2.78, R 2.36, V 1.96
A11: K 4.5, Y 3.13, M 3.4, E 3.85, W 1.86, F 2.19, D 4.39, N 3.88, R 3.74, T 3.32, L 3.04, Q 3.44, V 2.13, C 1.95, H 3.02, I 2.32, G 2.86, S 3.88
A8: R 3.96, T 3.46, H 3.86, V 2.11, E 4.74, F 2.55, P 3.94, K 3.79, D 5.19, C 2.47, Y 1.88, Q 4.09, S 4.18, N 4.21, L 2.25, I 2.75, G 4.44, M 2.17
R20: V 3.41, H 2.96, Y 3.3, S 3.68, L 3.78, W 2.21, A 3.42, D 3.64, F 2.97, K 3.37, Q 3.71, N 3.36, T 3.63, C 2.9, P 4.34, I 3.17, E 4.12, M 3.3, G 3.14
A13: V 3.87, Q 3.28, S 3.31, C 2.25, N 2.57, W 3.02, T 2.71, F 2.64, D 3.9, M 2.79, I 3.04, K 3.36, H 3.17, R 3.78, E 3.93, G 3.01, L 3.13, Y 3.26, P 3.43
G17: D 3.88, Q 3.31, C 4.17, H 3.62, L 3.12, R 3.23, I 2.74, K 2.63, E 3.52, T 3.08, V 3.48, M 3.35, A 3.02, F 3.18, W 2.85, P 3.22, N 3.28, Y 3.45, S 3.39

Variants of: B2
Assay: as above
Settings: c terminus: a fixed tail appended

Protein stability index: each site, then its substitutions
F1: E 5.2, A 4.58, K 4.51, I 3.74, D 4.91, G 4.74, H 4.61, C 3.83, L 4.5
